Reference: US20200085917A1 (UNIVERSITY OF PITTSBURGH OF THE COMMONWEALTH SYSTEM OF …, published 2020)

B1: Rab2a_IPI:IPI00137227.1 (other, mouse, UniProt P53994 2-212, looked up)
chain: AYAYLFKYIIIGDTGVGKSCLLLQFTDKRFQPVHDLTIGVEFGARMITIDGKQIKLQIWDTAGQESFRSITRSYYRGAAGALLVYDITRRDTFNHLTTWLEDARQHSNSNMVIMLIGNKSDLESRREVKKEEGEAFAREHGLIFMETSAKTASNVEEAFINTAKEIYEKIQEGVFDINNEANGIKIGPQHAATNASHGSNQGGQQAGGGCC
B2: Rab5b_IPI:IPI00116563.2 (other, mouse, UniProt P61021 2-215, looked up)
chain: TSRSTARPNGQPQASKICQFKLVLLGESAVGKSSLVLRFVKGQFHEYQESTIGAAFLTQSVCLDDTTVKFEIWDTAGQERYHSLAPMYYRGAQAAIVVYDITNQETFARAKTWVKELQRQASPSIVIALAGNKADLANKRMVEYEEAQAYADDNSLLFMETSAKTAMNVNDLFLAIAKKLPKSEPQNLGGAAGRSRGVDLHEQSQQNKSQCCSN
B3: Synj2bp_IPI:IPI00109206.1 (other, mouse, UniProt Q9D6K5 1-145, looked up)
chain: MNGRVDYLVTEEEINLTRGPSGLGFNIVGGTDQQYVSNDSGIYVSRIKEDGAAAQDGRLQEGDKILSVNGQDLKNLLHQDAVDLFRNAGCAVSLRVQHRLPVQNGPIVHRGEGEPSGVPVAMVLLPVFALTMVAVWAFVRYRKQL
B4: Tim23 (endogenous, mouse forebrain mitochondria) (other, UniProt Q9WTQ8 1-209, looked up)
chain: MEGGGRSSNKSTSGLAGFFGAGGAGYSNADLAGVPLTGMNPLSPYLNVDPRYLVQDTDEFILPTGANKTRGRFELAFFTIGGCCMTGAAFGAMNGLRLGLKETQSMAWSKPRNVQILNMVTRQGALWANTLGSLALLYSAFGVIIEKTRGAEDDLNTVAAGTMTGMLYKCTGGLRGIARGGLAGLTLTSLYALYNNWVHMKGSLLQQSL
notes: also called Timm23_IPI:IPI00123712.1; Tim23 subunit
B5: Uqcrb_IPI:IPI00132347.1 (other, mouse, UniProt Q9D855 2-111, looked up)
chain: AGRSAVSASSKWLDGFRKWYYNAAGFNKLGLMRDDTLHETEDVKEAIRRLPEDLYNDRMLRIKRALDLTMRHQILPKDQWTKYEEDKFYLEPYLKEVIRERKEREEWAKK
B6: Uqcrq_IPI:IPI00224210.5 (other, mouse, UniProt Q9CQ69 1-82, looked up)
chain: MGREFGNLARIRHVISYSLSPFEQRAFPSYFSKGIPNVLRRTRERILRVAPPFVVVYLIYTWGNQEFEQSKRKNPAMYENDK
B7: Cplx2_IPI:IPI00111501.1 (other, mouse, UniProt P84086 1-134, looked up)
chain: MDFVMKQALGGATKDMGKMLGGEEEKDPDAQKKEEERQEALRQQEEERKAKHARMEAEREKVRQQIRDKYGLKKKEEKEAEEKAALEQPCEGSLTRPKKAIPAGCGDEEEEEEESILDTVLKYLPGPLQDMFKK
B8: Atp5f1_IPI:IPI00341282.2 (other, mouse, UniProt Q9CQQ7 43-256, looked up)
chain: PLPPLPEYGGKVRLGLIPEEFFQFLYPKTGVTGPYVLGTGLSLYFLSKEIYVITPETFSTISVVGLIVYVIKKYGASFGEFIDKLNEEKIAQLEEVKQSSMKQIQDAIDMEKAQQALVQKRHYLFDVQRNNIALALEVTYRERLHKAYKEVKNRLDYHISVQNMMRRKEEEHMIDWVEKHVVKSISVQQEKETIAKCIEDLKLLAKKAQAQPIM
B9: C1qbp_IPI:IPI00132799.4 (other, mouse, UniProt O35658 71-278, looked up)
chain: LHTEGDKAFVEFLTDEIKEEKKIQKHKSLPKMSGDWELEVNGTEAKLLRKVAGEKITVTFNINNSIPPTFDGEEEPSQGQKAEEQEPERTSTPNFVVEVTKTDGKKTLVLDCHYPEDEIGHEDEAESDIFSIKEVSFQATGDSEWRDTNYTLNTDSLDWALYDHLMDFLADRGVDNTFADELVELSTALEHQEYITFLEDLKSFVKNQ
B10: Pfn2_IPI:IPI00227805.6 (other, mouse, UniProt Q9JJV2 2-140, looked up)
chain: AGWQSYVDNLMCDGCCQEAAIVGYCDAKYVWAATAGGVFQSITPVEIDMIVGKDREGFFTNGLTLGAKKCSVIRDSLYVDGDCTMDIRTKSQGGEPTYNVAVGRAGRVLVFVMGKEGVHGGGLNKKAYSMAKYLRDSGF
B11: Tomm20_IPI:IPI00120715.1 (other, mouse, UniProt Q9DCC8 1-145, looked up)
chain: MVGRNSAIAAGVCGALFIGYCIYFDRKRRSDPNFKNRLRERRKKQKLAKERAGLSKLPDLKDAEAVQKFFLEEIQLGEELLAQGDYEKGVDHLTNAIAVCGQPQQLLQVLQQTLPPPVFQMLLTKLPTISQRIVSAQSLAEDDVE
B12: Cplx1_IPI:IPI00132278.1 (other, mouse, UniProt P63040 1-134, looked up)
chain: MEFVMKQALGGATKDMGKMLGGDEEKDPDAAKKEEERQEALRQAEEERKAKYAKMEAEREVMRQGIRDKYGIKKKEEREAEAQAAMEANSEGSLTRPKKAIPPGCGDEPEEEDESILDTVIKYLPGPLQDMFKK
B13: Brp44_IPI:IPI00131896.1 (other, mouse, UniProt Q9D023 1-127, looked up)
chain: MAAAGARGLRATYHRLMDKVELLLPKKLRPLYNHPAGPRTVFFWAPIMKWGLVCAGLADMARPAEKLSTAQSTVLMATGFIWSRYSLVIIPKNWSLFAVNFFVGSAGASQLFRIWRYNQELKSKGIQ
B14: Ppdpf_IPI:IPI00133078.1 (other, mouse, UniProt Q9CR37 1-115, looked up)
chain: MAAIPSSGSLVATHDYYRRRLGSSSSSSSGGSAEYPGDAVLQSPGLPKADPGHWWASFFFGKSTLPFMTTVLESPERSAESPQVSRSPMTCGLTPETMKQQPVIHSGQTNPRDLS
B15: Mrpl14_IPI:IPI00133778.1 (other, mouse, UniProt Q9D1I6 31-145, looked up)
chain: AVQKMTRVRVVDNSALGSTPYHRPPRCIHVYNKSGVGKVGDQILLAIRGQKKKALIVGHRMPGSRMTPKFDSNNVVLIEDNGNPVGTRIKIPIPTSLRRREGEYSKVLAIAQNFV
B16: Arf2_IPI:IPI00135730.1 (other, mouse, UniProt Q8BSL7 2-181, looked up)
chain: GNVFEKLFKSLFGKKEMRILMVGLDAAGKTTILYKLKLGEIVTTIPTIGFNVETVEYKNISFTVWDVGGQDKIRPLWRHYFQNTQGLIFVVDSNDRERVNEAREELTRMLAEDELRDAVLLVFVNKQDLPNAMNAAEITDKLGLHSLRQRNWYIQATCATSGDGLYEGLDWLSNQLKNQK
B17: Isca2_IPI:IPI00120671.2 (other, mouse, UniProt Q9DCB8 9-154, looked up)
chain: LTAEAVRAVIPRRSGRLLAVFPRLLTRWETTSSIPEAGEGQIRLTDSCVQRLLEITEGSEFLRLQVEGGGCSGFQYKFSLDTVINPDDRVFEQGGARVVVDSDSLAFVKGAQVDFSQELIRSSFQVLNNPQAQQGCSCGSSFSVKV
B18: Ociad2_IPI:IPI00112139.1 (other, mouse, UniProt Q9D8W7 1-154, looked up)
chain: MASVSTHGNQEKSPHLPPLSKQSLLFCPKSKLHIHRGEIAKIIRECQEESFWKRALPFSLISMLVTQGLVHQGYLAANPRFGSLPKVALAGLLGFGLGKASYIRVCQSKFHSFEDQLRGAGFGPEHNRHCLLTCEDCKTRRGLSEKAGSQPSAS
B19: Prdx3_IPI:IPI00116192.1 (other, mouse, UniProt P20108 63-257, looked up)
chain: TPAVTQHAPYFKGTAVVNGEFKELSLDDFKGKYLVLFFYPLDFTFVCPTEIVAFSDKANEFHDVNCEVVAVSVDSHFSHLAWINTPRKNGGLGHMNITLLSDITKQISRDYGVLLESAGIALRGLFIIDPNGVVKHLSVNDLPVGRSVEETLRLVKAFQFVETHGEVCPANWTPESPTIKPSPTASKEYFEKVHQ
B20: Cisd1_IPI:IPI00128346.1 (other, mouse, UniProt Q91WS0 1-108, looked up)
chain: MGLSSNSAVRVEWIAAVTFAAGTAALGYLAYKKFYAKENRTKAMVNLQIQKDNPKVVHAFDMEDLGDKAVYCRCWRSKKFPFCDGAHIKHNEETGDNVGPLIIKKKET
B21: Fis1_IPI:IPI00132217.1 (other, mouse, UniProt Q9CQ92 1-152, looked up)
chain: MEAVLNELVSVEDLKNFERKFQSEQAAGSVSKSTQFEYAWCLVRSKYNEDIRRGIVLLEELLPKGSKEEQRDYVFYLAVGNYRLKEYEKALKYVRGLLQTEPQNNQAKELERLIDKAMKKDGLVGMAIVGGMALGVAGLAGLIGLAVSKSKS

target: T1, GST alone (UniProt P08515 1-218 = GST); assay: GST pull-down, LC-MS/MS
T1 construct: Negative control of the pull-downs; also called control GST
T1 sequence (P08515 whole entry): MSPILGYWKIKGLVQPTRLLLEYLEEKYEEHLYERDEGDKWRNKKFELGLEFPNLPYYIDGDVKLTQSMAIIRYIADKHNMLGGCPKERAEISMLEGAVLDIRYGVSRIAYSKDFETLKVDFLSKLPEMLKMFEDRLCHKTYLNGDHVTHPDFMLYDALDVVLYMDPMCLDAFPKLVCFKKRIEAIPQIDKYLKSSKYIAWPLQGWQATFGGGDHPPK
Method: Extracts were spun at 14,000 r.p.m. at 4° C., and clarified supernatants were incubated with glutathione 4B Sepharose beads (GE Healthcare) at 4° C. overnight. The glutathione beads were then washed extensively with ice-cold TNE buffer, and bound proteins were subjected to SDS-PAGE followed by immunoblotting analysis. For the samples subjected to mass spectrometry, glutathione bead-bound proteins from equal amounts (600 μg) of mitochondria were further washed with high stringency RIPA buffer following TNE buffer wash to decrease nonspecific interaction. Proteins were then eluted from the glutathione beads in SDS sample buffer, separated by SDS-PAGE and stained with Coomassie. Proteins in the gel were digested with trypsin and analyzed by mass spectrometry (LC-MS/MS) at the Taplin Biological Mass Spectrometry Facility (Harvard Medical School, Boston, Mass.).

Binding result, no binding:
B1, B2, B3, B4, B5, B6, B7, B8, B9, B10, B11, B12, B13, B14, B15, B16, B17, B18, B19, B20, B21
